Results taken from patent publication US20040014132A1 (AstraZeneca / MedImmune, published 2004).

B1: CAT-212 (scFv, part only; not given: scFv linker and myc/His tag, V domains shown, not shown: another chain or arm of the molecule; small tags and cut ends)
VH: QVQLVQSGGGVVQPGRSLRLSCAASGFTFSSYGMHWVRQAPGKGLEWVAVISYDGSIKHYADSVKGRFTISRDNSKNTLYLQMNSLRTDDTAVYYCAGDTDYGDIDPWGQGTMVTVSS
VL: DIQMTQSPSSVSASVGDRVTITCRASQDISSWLAWYQQKPGKAPKLLIYAASSLQSGVPSRFSGSGSGTDFTLTISSLQPEDFATYYCQQASSFPSITFGQGTRLEIK
B2: CAT-213 (antibody, human IgG4, V domains shown)
VH: B1 VH
VL: DIQMTQSPSSVSASVGDRVTITCRASQDISSWLAWYQQKPGKAPKLLIYAASSLQSGVPSRFSGSGSGTDFTLTISSLQPEDFATYYCQQASSFPSITFGQGTRLEIKR

Target: Human eotaxin (human, UniProt P51671 24-97)
Test: cell-based or functional assay

Chain of Human eotaxin (P51671 24-97 limits assumed): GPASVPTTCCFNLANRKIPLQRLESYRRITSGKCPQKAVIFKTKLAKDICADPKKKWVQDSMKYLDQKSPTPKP

Binder	IC50, inhibition of eotaxin-induced Ca^2+ flux in CCR3 cells (area under the curve, FLIPR)	IC50, inhibition of eotaxin-mediated chemotaxis of CCR3 transfected L1.2 cells	geometric mean IC50, inhibition of eotaxin-evoked shape change of human eosinophils (forward scatter)
B1	5 nM	0.65 nM	–
B2	–	0.7 nM	0.714 nM
